# Source: paper PMC4896102, “Biosynthesis of the polymeric gel-forming mucin MUC5B” (American Journal of Physiology - Lung Cellular and …, 2016)
# B1: recombinant MUC5B COOH-terminus (CT5B; D4-B-C-CK) (domain or fragment, human, UniProt Q9HC84 4955-5762, looked up)
# chain: GEVIYNKTDRAGCHFYAVCNQHCDIDRFQGACPTSPPPVSSAPLSSPSPAPGCDNAIPLRQVNETWTLENCTVARCVGDNRVVLLDPKPVANVTCVNKHLPIKVSDPSQPCDFHYECECICSMWGGSHYSTFDGTSYTFRGNCTYVLMREIHARFGNLSLYLDNHYCTASATAAAARCPRALSIHYKSMDIVLTVTMVHGKEEGLILFDQIPVSSGFSKNGVLVSVLGTTTMRVDIPALGVSVTFNGQVFQARLPYSLFHNNTEGQCGTCTNNQRDDCLQRDGTTAASCKDMAKTWLVPDSRKDGCWAPTGTPPTASPAAPVSSTPTPTPCPPQPLCDLMLSQVFAECHNLVPPGPFFNACISDHCRGRLEVPCQSLEAYAELCRARGVCSDWRGATGGLCDLTCPPTKVYKPCGPIQPATCNSRNQSPQLEGMAEGCFCPEDQILFNAHMGICVQACPCVGPDGFPKFPGERWVSNCQSCVCDEGSVSVQCKPLPCDAQGQPPPCNRPGFVTVTRPRAENPCCPETVCVCNTTTCPQSLPVCPPGQESICTQEEGDCCPTFRCRPQLCSYNGTFYGVGATFPGALPCHMCTCLSGDTQDPTVQCQEDACNNTTCPQGFEYKRVAGQCCGECVQTACLTPDGQPVQLNETWVNSHVDNCTVYLCEAEGGVHLLTPQPASCPDVSSCRGSLRKTGCCYSCEEDSCQVRINTTILWHQGCETEVNITFCEGSCPGASKYSAEAQAMQHQCTCCQERRVHEETVPLHCPNGSAILHTYTHVDECGCTPFCVPAPMAPPHTRGFPAQEATAV
# modifications: N-glycans (removed by PNGase F; positions not stated)
# notes: Present as a mixture of monomers and disulfide-stabilised dimers; the proportions varied between preparations; also called MUC5B COOH-terminal construct; COOH-terminal region of MUC5B
# Molecular target: the molecule itself
# Assay: SEC-MALS; SEC-MALLS of purified CT5B, performed as described in ref. 18; light scattering and refractive index
protein,measurement,value
B1,stoichiometry N,2
